# Reference: the DeepSol protein solubility set
# Experiment: soluble on expression in E. coli; label from the status in PepcDB or PDB records
row,Sequence,soluble on expression in E. coli
1,SAENERMYISYNNIHKLCQGVAKHILARNERPDIIIAITGGGMIPARIIRSFLKTKGQKNIPIQAIGLSLYEDLGLDNSVETIGKEVIRTQWLDFGALNQHFDSLIGKKVLIVDEVDDTRTTLHYAVSELEKEIAEQQKVLNRMSEETVISIFVLHNKDKPKRAGLPDSMMNSGRYIAAQTVPDKWLCYPWDAEDIEEHTMLAKAQGHD,soluble
2,SAESPAFLSAKDEGSFAYLTIKDRTPQILTKVIDTLHRHKSEFFEKHGEEGIEAEKKAISLLSKLRNELQTDKPITPLVDKCVDTHIWNQYLEYQRSLLNEGDGEPRWFFSPWLFVECYMYRRIHEAIMQRQVYSQ,soluble
3,SAGSVADSDAVVKLDDGHLNNSLSSPVQADVYFPRLIVPFCGHIKGGMRPGKKVLVMGIVDLNPESFAISLTCGDSEDPPADVAIELKAVFTDRQLLRNSCISGERGEEQSAIPYFPFIPDQPFRVEILCEHPRFRVFVDGHQLFDFYHRIQTLSAIDTIKINGDLQITKLG,soluble
4,SALSSCASLLGSPLSNDFMVLSLSDLLTPWEVIRKRAEAAAILDLVTVIYNPRGSRFPNNLEKVMEYFLKYRSGDTPVGIVRNAYRPDQSAKIVQLKDFSCSEIDMLTTVIIGNSETY,not soluble
5,SAQEEGGSLPEVRARVRAAHGIPDLAQKLHFYDRWAPDYDQDVATLLYRAPRLAVDCLTQALPGPPHSALILDVACGTGLVAAELRAPGFLQLHGVDGSPGMLEQARAPGLYQRLSLCTLGQEPLPSPEGTFDAVLIVGALSDGQVPCNAIPELHVTKPGGLVCLTTRTNWSNLQYKEALEATLDRLEQAGMWEGLVAWPVDRLWTAGSWLPPSWWWYPASLPRMASSPALSTCTESGRRPRLRK,soluble
6,SASTIYTCKECGSDLNLNPNDLFPPDFYFEAGNKGTLSFAAVDAEKFRFEKEDKIMPFFETLNYWGIQRKRTKIKCTSCNHLIGYIYDDGPPLTGGIGQYGFGPSQVIPRAPRYRFKTKARQDGWQYGGLTAFWN,soluble
7,SATETQIRIGVMGCADIARKVSRAIHLAPNATISGVASRSLEKAKAFATANNYPESTKIHGSYESLLEDPEIDALYVPLPTSLHVEWAIKAAEKGKHILLEKPVAMNVTEFDKIVDACEANGVQIMDGTMWVHNPRTALLKEFLSDSERFGQLKTVQSCFSFAGDEDFLKNDIRVKPGLDGLGALGDAGWYAIRATLLANNFELPKTVTAFPGAVLNEAGVILSCGASLSWEDGRTATIYCSFLANLTMEITAIGTKGTLRVHDFIIPYKETEASFTTSTKAWFNDLVTAWVSPPSEHTVKTELPQEACMVREFARLVGEIKNNGAKPDGYWPSISRKTQLVVDAVKESVDKNYQQISLSGR,soluble
8,SATGTPESQARFGQSVKGLLTEKVTTCGTDVIALTKQVLKGSRSSELLGQAARNMVLQEDAILHSEDSLRKMAIITTHLQYQQEAIQKNVEQSSDLQDQLNHLLK,soluble
9,SAVAVEGARRKERILCLFDVDGTLTPARQKIDPETIQNHLGEELLQDLINFCLSYMALLRLPKKRGTFIEFRNGMLNVSPIGRSCTLEERIEFSELDKKEKIREKFVEALKTEFAGKGLRFSRGGMISFDVFPEGWDKRYCLDSLDEDSFDIIHFFGNETSPGGNDFEIYADPRTVGHSVVSPQDTVQRCRELFFPETAHEA,soluble
10,SCIIFFKFDPRPVSKNAYRLILAANRDEFYSRPSKLADFWGNNNEILSGLDMEEGKEGGTWLGISTRGKLAALTNYLQPQLDWQARGRGELVTHFLTTDVDSLSYLKKVSMEGHLYNGFNLIAANLSTAKGDVICYYGNRGEPDPIVLTPGTYGLSNALLETPWRKLCFGKQLFLEAVERSQALPKDVLIASLLDVLNNKEAQLPDPAIEDQGGEYVQPMLSKYAAVCVRCPGYGTRTNTIILVDADGHVTFTERSMMDKDLSHWETRTYEFTLQS,not soluble
11,SCRRAFDLYFVLDKSGSVANNWIEIYNFVQQLAERFVSPEMRLSFIVFSSQATIILPLTGDRGKISKGLEDLKRVSPVGETYIHEGLKLANEQIQKAGGLKTSSIIIALTDGKLDGLVPSYAEKEAKISRSLGASVYCVGVLDFEQAQLERIADSKEQVFPVKGGFQALKGIINSILAQSC,soluble
12,SDGPERDFNLKVVLISFKKCLTDKGEVLLDHYTASWKGLVRFLNSLGAVFSFISKDVVSKLQIMEHLRSGPQSEHYISLQSMVAYEVSNKLVDRDSRSRPRHPNSGCRTVLRLHRALHWLQLFLEGLRTSSEDARTSTLCSEAYNATLAAYHSWIVRQAVNVAFHALPPRKVFLEAMNMGSSEQAVEMLGEALPFIEQVYDISQKLYAEHSLLDLP,soluble
13,SDIELIHCGADLVERMMNDIRQAASSVHMMFFIMKNDEVSHNMYTLLKTKAQAGVSVYLLLDWAGCRAIKKTALQTMKNAGVHVHVMNRPRFPFFFFHMQKRNHRKITVIDGKIGYIGGFNIAEEYLGKKAKFGNWEDYHLRMIGEGVHDLQTLFASDLKRNTGIELGSDVWPKLQQGTISHKIYATDGYSLENIYLANIAQAKNRLTVCTPYYIPSKPLQEALINARKNGVSVRIIVPMKSDHPLVREAAFTYYSELLDAGCLIYRYYQGFYHVKALIIDDHLSIIGTANFDKRSLFLNEEVNVEIDDEAFTSEVYATIEEDMKKSELLTMEDFSKRTFRQRPAEWLGR,not soluble
14,SDNLSSEEIQQRAHQITDESLESTRRILGLAIESQDAGIKTITMLDEQKEQLNRIEEGLDQINKDMRETEKTLTELNKCCGLCVCPCNRTKNFESGKAYKTTWGDGGENSPCNVVSKQPGPVTNGQLQQPTTGAASGGYIKRITNDAREDEMEENLTQVGSILGNLKDMALNIGNEIDAQNPQIKRITDKADTNRDRIDIANARAKKLIDS,soluble
15,SDPDADRVGIACKNDKGEWVLINGNQTCLMYLYYIITQYNKLGKMTGNEFCVKTIVTTELIKKIADKNHIEMLDCYTGFKWIAREIRLREGKKKYIGGGEESYGFLAEDFVRDKDAVSACCLIAEVAAWAKDNGKTLYQLLMDIYVEYGFSKE,not soluble
16,SDVYNNTAFFEQYMKRRYRENSPNESIEKPVFFQLIGHVQGKQILDLGCGDAKFGAELLEKGCYSYTGIEGSELMYEKAKKQLENKNGSVHFLNLKDYTYPSSTFDLVTSRLALHYIEHLDTIFQNVFQTLKTNGTFTFSVQHPVITSSFESLQTSGKRTIWLVDDYFKLGKRVEPWIDQEVIKYHRTTEEYFTLLQQAGFTITSLKEATPNPTYFQDEEEYKRRLRIPLFLLFSCTK,soluble
17,SDYFRSCWGPRSPAGHRVRGSDVAGRQDGLLWYKDAGQLVTGEFSMAVVQANNLLEDQSQVESGALSMAEPGPQGTFIGVYDGHGGPETARFINDHMFHHLRRFATEHKCMSTDVIRKAFQATEEGFLSLVSKQWSLKPQIAAVGSCCLVGVICSGTLYVANLGDSRAVLGRFVKSTGEVVATQLSSEHNACYEEVRQELQASHPDDPQIVVLKHNVWRVKGLIQISRSIGDVYLKRPEYNREPLHSKFRLRETFKRPILSSEPAIAVHQIQPNDHFVIFASDGLWEHLSNQEAVDLVQNNPRNGIARRLVKVAMQEAAKKREMRYSDLKKIDRGVRRHFHDDITVIVVFLDSNAISKANWSRGPSVSLRGGGVTLPANSLAPFSTPTVLSSTY,soluble
18,SEAVLTEELDEEEQLLRRHRKEKKELQAKIQGMKNAVPKNDKKRRKQLTEDVAKLEKEMEQKHREELEQLKLTTKENKIDSVAVNISNLVLENQPPRISKAQKRREKKAALEKEREERIAEAEIENLTGARHMESEKLAQILAARQLEIKQIPSDGHCMYKAIEDQLKEKDCALTVVALRSQTAEYMQSHVEDFLPFLTNPNTGDMYTPEEFQKYCEDIVNTAAWGGQLELRALSHILQTPIEIIQADSPPIIVGEEYSKKPLILVYMRHAYGLGEHYNSVTRLVNIVTENCS,soluble
19,SELPPEPQANGEAVGAGGGPIYYIYEEEEEEEEEEEEPPPEPPKLVNDKPHKFKDHFFKKPKFCDVCARMIVLNNKFGLRCKNCKTNIHEHCQSYVEMQRCFGKIPPGFHRAYSSPLYSNQQYACVKDLSAANRNDPVFETLRTGVIMANKERKKGQADKKNPVAAMMEEEPESARPEEGKPQDGNPEGDKKAEKKTPDDKHKQPGFQQSHYFVALYRFKALEKDDLDFPPGEKITVIDDSNEEWWRGKIGEKVGFFPPNFIIRVRAGERVHRVTRSFVGNREIGQITLKKDQIVVQKGDEAGGYVKVYTGRKVGLFPTDFLEEI,soluble
